Laboratory results published in article PMC4081097.

Biological target: T1, AbaSI-C3S (Acinetobacter baumannii SDF, UniProt B0VN39 1-321, C2S;C309S;C321S)
T1 sequence: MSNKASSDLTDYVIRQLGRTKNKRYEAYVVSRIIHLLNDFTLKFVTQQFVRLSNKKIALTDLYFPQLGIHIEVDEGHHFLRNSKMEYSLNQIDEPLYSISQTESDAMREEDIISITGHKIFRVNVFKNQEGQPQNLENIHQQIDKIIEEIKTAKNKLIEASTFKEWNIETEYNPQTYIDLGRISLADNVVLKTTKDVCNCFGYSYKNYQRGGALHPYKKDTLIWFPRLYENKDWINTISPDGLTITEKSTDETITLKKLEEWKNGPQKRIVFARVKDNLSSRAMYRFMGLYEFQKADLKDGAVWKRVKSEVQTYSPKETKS
Test: X-ray crystallography

B1: 14+4 product DNA (dsDNA)
DNA 1: TGCTCGATACAATAGGCC
DNA 2: TATTGTATCGAGCA
modifications: 5hmC at top position 5
**Q.** Does B1 bind?
**A.** Result: binds
